A short description of this data set: label from the status in PepcDB records.

As for “MMTKKDLPLRQLLKLRNSWIAWVVFLVSVVATVLLWQVSIRLVEDRTEARFRTQSLQLKTAIEERLLNYEQVLAGSAGLFAVTGKVTRDQWKEYVDNVDINRYYPGIEGIGYVERIGVREMADHIASVRAEGLYNYLVKPLGTGPYYYPMVYLEPGTERNRKALGYDAFSDPIHRTAMEQARDDAIPTVTGKVVLVQESVAEDQAGFLMYYPVFQGGEIPEIRAERRMMLAGYVFSAFRMNNLIDGIVGLISPFLDVRIYDSGVVARDTLMYGSNLGSLDNEFSFEMSQTIRHGGREWLLQTRSTPAFDYLAADPRPPIVLGSGLAISLLLWLFVLALIRSRLIAQVSAGRYRAITEGAANVTLVMDRRGRPLYASPSSRDILGFDPDKVEALEFEKLVHMDDWSHLQRGFEESMASPGKQMPVVRARVRDADGQWRDMEGTFTAMLSVPGVNGVVLSLRDLTQLKAAQSELHRLAFYDPLTGLANRQLFRDRLNHVVRRSRRSGEAAALMFLDLDGFKRINDTLGHDAGDELLRQVAQWLEGCVREEDSVARLGGDEFVVLLSRISGSEAAGKVAENILRRLCQRIRLNDHEVGVTVSIGITMIPHDSEDAGALMKYADLAMYRAKELGRNTYQFFTPAMNIQAARRLLQQEELATALDGDRFVLHYQPKVDLATQRVIGVEAFLRWHHPEKGLVSAQQFITLAEETGLIIRLGELALRQACIQVQALERAGFESLKMAVNFSVRQLTDSGFLDMIRRVITETGVSPERLELEMPAELLNEDPRMLRELLVSLNDLGVCLILDDFGTGSCSLVALQQLPLDVIKIDHRFIRDIPYNVSATDVASAVIALAHKLHLTVVAEGVETLQQLTFLKSAGCAQCQGNLFSYPLDEDALIGFLIRQYEKPLIS”, the protein production result is on record as “failed”.

In the case of “MMTLVILLLFLLFCVLVFWISITFSIKYVLIFTAFLFSGLLVYYSFLTIAGLIHRNSKRKDRTLEHYPSVDIFIPAHNEGVVIKDTLEAMAKIEYPGKLTIYLLNDNSQDETPEIGDDFDKAYAHIRHIRVPPGEPKGKSRVLNYGLSISDGEYFCVYDADNQPEPHALRMLVEHAETTEDAVGAVGHVRTVNEKRNWLTRMISLEFQIFQLLMQSGRWLLFQTGSLTGTNMLLRRSALEELGGYDPYAIAEDAELTLRITQKGYLLPIVPESVTWEQEPEHLKILIKQRTRWLQGNLYILEKMFSSLSFFKGKLLVHSLQQVLVYVVFWLFLIISNVWFVIGLLGIFQIQYSIPLLFMWYVAYITYVSQLFSAQSVERTFTPTNIFISVIMYFTYAQLFTYLFIRSLILYLRAKSKKQVIGWDKTVRFKKDK”, the protein production result is “failed”.

For “MMVAVIPAYNEEKNIISVLKDLSDINIDVIVVDDGSTDKTKTIINEFLEKNEFKNKIFPIFKEKNEGKSKALEDGTNYAINLNYDAIAYLDGDYQHKPSDIIPMYEKMKSENADAVFGIRKYKHIPFHRQFSNFLASVIMSITVSVFSGNFHIFRDIQCGFRIIKSEFLKNSYFGDGYSVEHLIALQLAKKNAKITEEYVTIDYHNDAISYITTKKILDVVKEVAKYVLSKH”, the protein production entry is given as “failed”.

As for “MMVETATVVQYQNGKALVRCSVKTACGNCGAKADCGTQLLSSLVKERVPHFELSVNMPLVAGDMVKIGLPEQTLLWSIFWIYVVPLMVLIGSAVGFTQLFANELVVVFMMFICTSMTFFSIKKIIDKKQLSQLNPIFLGRVE”, the protein production result is “failed”.

Take “MMVPHLTTALTGPLLTLEKRLLDNMPRIEHWFRSQWQEYGAPFYASVDLRNAGFKLAPVDTNLFPGGFNNLNPDFLPLCIQAAMVAVEKICPDARRLLLIPENHTRNTFYLRNVHALTHILRQAGLEVRIGSIAPEITAPTFLETHDGHSILLEPVRRKANRLELDNFDSCAILLNNDLSGGIPDILQGLEQSLIPPLHAGWATRRKSNHFTAYDRVVEEFAPLIDIDPWLLNPYFDTCGGLDFHARLGEEQLAEKVDSLLAKIRRKYAEYGVKQEPFVIVKADAGTYGMGIMTVKSADDVRDLNRKQRNKMSVVKEGLKVSEVILQEGVYTFEHLKDAVAEPVIYMMDHFVVGGFYRVHTSRGADENLNAPGMHFEPLTFETPCSTPDCAGAPDAAPNRFYAYGVVARLALLAATIELQETDPDLLDERT”: the protein production entry is recorded as “not failed”.

On to “MNAEDFPTPDADVESVTPETLKSRIDDGESVTILDARMSGDYEEWHIDGENVESINVPYFHFLEDELDADIIADVPDDREVTVLCAKGGASEYVAGTLADRGYDVHHLEDGMNGWARIYETVEVTDYDGAGTLLQYQRPSSGCLGYLVYDDGEAAIIDPLRAFADRYFDDADELGVDLKYALDTHIHADHISGVRGLDAAGVEGVIPAAAVDRGVTYAAEQSSASPVSQARQDADDLTTAEDGDTFEVGDVTIETVATPGHTTGMTSYLVDDSLLATGDGLFIESVARPDLEEGDEGAPDAARMLYESLQERVLTLPDDTLIGGAHFSDAAEPANDGTYTAPIGQLVEEMDALTMDEDDFVETILADMPPRPANYEDIIATNLGQNTVDDEEAFTLELGPNNCAASQESLAGD”, for which the protein production entry was “failed”.

As to “MNAMLVGADTLGNIPDVLQNYGITIHRHLSGRNSSHQRKVDRLPAGTDLLILFTDFLGHNVMRHFRELAAEQQIRFIACRRSVCALKQSLTGAGMCEQPCAACPQRSGGDKPVKRKR”, the protein production entry is reported as “failed”.

Consider “MNATAPGTPPNPPQSTGTLMPLVSFRRHRRIALMVMAVVVVFGAGFAWVKGKAVYSATAVLYVAPHFVNILKESKELDIPAYDQFIEHQALTVPRYDILLESLAKLGDRRYVWQKKKESDRRAAERLQAALEVKPVKDSYLITVTLESTTPDHLDELVNTIVDTYLEKSRESDSFFARNVRLTSLRERRGQIQGEIDAKLARRTEIAQELSVTTFSEQLASPYDKLLIESQNALAMAQRNRLASEAALALFEDRKSGQDAIAAAAFDTIQKDPGLISLKGSLYKRRSELLQQASGLDPRHPLKIQIDREFKEIDEELNRTVAKLTEQVAKSFIDQRKADVKRDRQIEQELSLQLESFRQKASWFAALYNEALSLSDEIERSRKQLDMIDERIEFFELESRAPGFVRVETYARPPELPVKGGRKKLFAVVLVLALALGAATPVGLDMLDQRIRTTGQVAKIIGHRPVAWFVEHHGSPDLKRMSADQLRRLAIAVNREREMHGSRLVSLTSVKPEAGVTDLALDLAAELGVLGVPTVVVEADPLRPDPRYRGGSAQPGLADLLAGSGEVTAAVVPAAGGLPARLGTGTAPGRQLFAYPALRRCLDELKAAYDLVLIDAPPLLLSADAEYLVEIADVTLLLVGAGQVKPGELRRAAGILEKIDPKAVGFVVTRLEVYRGGGYYAKLAEEFALAASHENGQKHTSRRLEG”, for which the protein production result was “failed”.

Take “MNDIVEFLKVFIPLFIVIDPFGSLVLFTSMTYNFNEGEKMRATKDAVVYGGIILVMFALAGQFIIYFFGISIEALEMAGGVILLLMAVEMIMEGNRPKTSGSEVTTDLDIGIVPFATPLLAGPGAISLVIILMKGPLIDKIFTFVSIGIIFLMVYIFFKEASIVSKFIGNKAMKAVSRIFGLLLAGFAIQYFIDAVTALFLVH”: the protein production entry is “failed”.

With “MNDIYFDDNRHNWNDRARLHEEAGYGIDKLLSDRDYITPEVEQDKDLIGDLTNKDVLHLQCHLGTDTISLARLGARRVLGLDLSDESLRRARNLAKKAGVSIDFIEGNVYDAREVIVGDFDLIYTSLGVLCWLPDITAWGRVVASLLKSGGKFIIRDDHPMFMTIGEDVRDGFKIEQPYFEQSQPMTWEDEGSYIETDASFEKIKNTRNHQWNHALSEIIMALINAGLQIDLVSESQHAAWNIWPHLMEKCSDGSYRLKKHSEVLPLQFLISAHKPEA”, the protein production entry is “failed”.

As for “MNDTLTLDEVVEFAENPEPRCPCVLLLDTSGSMQGAAIEALNQGLLSLKDELMKNSIAARRVEIAIVTFDSHINVIQDFVTADQFNPPILTAQGLTSMGAGIHKALDMVQERKSLYRANGVAYYRPWVFMITDGEPQGELDHLVEQAALRLQGDEVNKRVAFFSVGVENANMTRLNQIAVRTPLKLKGLNFIEMFVWLSASMSAVSHSQIDEQVALPPIGWGSI”, the protein production result is listed as “failed”.

On to “MNDTSNPYATPASALQPTQAVPPVIGDYDFRIGDVISEAWAKIKGVKGILIGAFVVYSVVIQTITFILTLLFGGIGLMSEADPIAFAVGQMIASLVATAVGYPFFTGLTMIGIRRAADQPATFNEMFNYFGMLVPLLLTGLLMMLMVYVGFFLLIIPGLYLSVAYMLALPLVAERGLTPWQALETSRKAISRHWFKVFGLLLVLSLLMLVSMIPLFIGLIWTGPLFVVSMGILYRTIFGVRPLGN”, for which the protein production result was “failed”.

As to “MNEADMLFSVTVPGSTANLGPGFDSVGMALSRYLKLTVFESDKWSFEAETETVAGIPAGTDNLIYQVAKRTADLYGKEMPPVHVKVWSDIPLARGLGSSAAAIVAAIELADELCGLKLSEADKLHLASLEEGHPDNAGASLVGGLVIGLHEDDETQMIRVPNADIDVVVVIPFYEVLTRDARDVLPKEFPYADAVKASAVSNILIAAIMSKDWPLVGKIMKKDMFHQPYRAMLVPELSKVEHVAEMKGAYGTALSGAGPTILVMTEKGKGEELKEQLALHFPHCEVDALTVPKEGSIIERNPLYQVKSV”, the protein production entry is recorded as “not failed”.

“MNEDALTFLSRQHPYDELPAGVLNDVAAQVEKLSVAEGEMIYAYGEPLEGLYIIQSGLVDVRDQSDTQVSMLERGNSFGERGLLADGNAVTSARAVRDTLLIRVPVSLFNTLRTEQSPFQRFFARSSARPDKSATQQTSLAQVSVDALMVRNPVTCTPGTSVVDAAVLMTSRRISCLCITEEDRLTGIVTLRDLVGKALAAGLPPQTPLSDIIQNEPVSLPPTAIGSDVLHMMMEYNLGHLPIVDAGKLVGIVTQTDLTRYQATTAAGLVADAARAQSVEALADITGRIPALLVQLVAAGNRHDVVTRMITDIADVVTRRLLNMAEEKLGPAPLRYLWLACGSQGRQEQTGVSDQDNCLILEDGASRDDIAYFHEMATFVSDGLNACGYVYCPGDMMATNPRWCQPLSVWKEYFNGWIKSPSKEAQMLASVMFDLRPIGGDASLFHGMQQATLEKAAKNSIFTAHMASNSLTHQTPLGLLRGLATISSGDHRKTIDTKLNGVVPVVDLGRMYALQGKLTVANTRARLIAALNNKTISAKGGRDLLEAYDLVAQTRLEHQARLIKEGKAPDNYLPPARLSDFERSHLRDAFVVIKTMQSALMQGRGILG”: the protein production result was “failed”.

As to “MNEELIKEKNFSDSVLSSYRMSLDHKKLQNKMIDNMLFRDISGGKKRTFVEEVEDNEEKNNKSAQKCIDGNDKNFIESRKKALENFQQNENNYDCTYKTIKKKNISGCNTTTKLKDVNSSEECQLCLMPNSDSLHGNFPPTFYKLTCDHIFHLMCLYETVIRRECRKTCCICHNELSENDKNEIINKVKLEKKENEKKSKLLFKVMKLQAENKDYPRKDICS”, the protein production result is on record as “failed”.

On to “MNEFETLLNSVEDVKVRDVVKGEILSVENGQATVAIVGTGVEGVLTLREITNDKDADINTFVKPGDVLDLLVIKQIVGKEAEGANVYLLSLKRLEARKAWTQLEGKEGEIVTVKVTKDVKGGLSVDYNGVRGFIPASMIDTYFVKDTKKFVGEEIEAKIIEVNASENRFILSRRAVVEAEAIEMRKEAFAQLQEGDIVEGTVSRVTNFGAFVDLGGIDGLVHVSELSHSRIKRPSDAVKPGDVVNVKILKLDPEAGRLSLSLKATQPGPWEQVEEKAPVGSTVEGTVKRLTDFGAFVELYPGVEGLVHVSQISWERVENPKDVLKVGQVVNVKVLDVKPAEERISLSIKALEEAPARPARNNDNDGEKRDRKPRAPRKAAKPSYDLPETQEGFSLADFLGEDFDINDLLEHHHHHH”, for which the protein production result was “not failed”.

The record behind these values is a protein production outcome set (Wang et al. 2014).
